Measured values from patent US20100086958A1, “NOVEL ENZYME” (priority 2008, published 2010).

How the values were obtained:
Assay type in all cases: biochemical
[1] = Steady state kinetics for NADP^+ (FDH-catalysed formate oxidation)
Description: BcenFDH1 (Bsp184FDH) and BspFDH2 (Bsp383FDH) catalyzed oxidation of formate to CO2 was monitored by UV/Vis spectrophotometry in a 96-well plate format. A series of eight solutions of formate (0-200 mM) were prepared by successive dilutions of a stock solution of 0.5 M sodium formate in 0.1 M sodium phosphate buffer, pH 7.0. From this series, 170 μL was transferred into wells of the 96-well plate. 10 μL of the FDHs from a stock solution (64.1 μM for BcenFDH1 (Bsp184FDH) and 78.0 μM for BspFDH2 (Bsp383FDH)) were added into each well and equilibrated for 3 min at 30° C. The reaction was initiated by addition of 20 μL of NAD^+ or NADP^+ solution from a freshly prepared stock (10 mM) using an 8-channel pipette. The plate was then immediately placed into the plate reader. The plate was shaken for 5 s to ensure thorough mixing, and then time-based measurements were recorded every 15 s for 10 min. The rate of formate oxidation was calculated using an extinction coefficient of 3.38 mM^−1 (for 200 μL), which was determined using NADH standards. Km and Vmax values were obtained by non-linear regression to the Michaelis-Menten equation (Eq.1 below) using Origin v7 (Microcal Software Inc.).
Similar procedure were used for determination of Michaelis-Menten parameters for NAD^+ and NADP^+. A series of eight solutions of cofactor (0-75 mM) were prepared by successive dilutions of stock solutions. […] of sodium formate solutions (180 mM in well) were transferred into wells of the 96-well plate. 10 μL of the FDHs from a stock solution (64.1 μM for BcenFDH1 (Bsp184FDH) and 78.0 μM for BspFDH2 (Bsp383FDH)) were added into each well and equilibrated for 3 min at 30° C. The reaction was initiated by addition of 20 μL of NAD^+ or NADP^+ solutions using an 8-channel pipette. The plate was then immediately placed into the plate reader. The plate was shaken for 5 s to ensure thorough mixing, and then time-based measurements were recorded every 15 s for 10 min. The rate of formate oxidation was calculated using an extinction coefficient of 3.38 mM^−1 (for 200 μL), which was determined using NADH standards. Km and Vmax values were obtained by non-linear regression to the Michaelis-Menten equation as before.

[2] = pH profile determination of FDH-catalysed formate oxidation; settings: pHs as low 4 or as high as 10.5
Description: The pH profiles for BcenFDH1 (Bsp184FDH) and BspFDH2 (Bsp383FDH) catalyzed formate oxidation, shown in FIG. 13(a) and (b), were investigated by Uv/Vis spectrophotometry in a 96-well plate format. […] From this series, 170 μL was transferred into wells of the 96-well plate. 10 μL of the FDHs from a stock solution solution (64.1 μM for BcenFDH1 (Bsp184FDH) and 78.0 μM for BspFDH2 (Bsp383FDH)) were added into each well and equilibrated for 3 min at 30° C. The reaction was initiated by addition of 20 μL of NAD^+ solution from a freshly prepared stock (10 mM) using an 8-channel pipette. The plate was then immediately placed into the plate reader. The plate was shaken for 5 s to ensure thorough mixing, and then time-based measurements were recorded every 15 s for 10 min. The rate of formate oxidation was calculated using an extinction coefficient of 3.38 mM^−1 (for 200 μL).

[3] = Ketoreductase (KRED101)/BspFDH2 coupled reduction of ethyl 4-chloro-3-oxobutanoate
Description: NADP^+ (10 mM, 1 mL) and BspFDH2 (17 mg/mL, 500 μL) were then added and the reaction shaken for 30 minutes at room temperature. After 30 minutes, KRED101 (40 mg/mL, 300 μL) was added. The reaction was monitored by GC-MS (Rt˜3.1 minutes). After 15 hr, the reaction mixture was extracted by DCM (3×1 mL) and combined organic phases were dried and the solvent removed to afford ethyl 4-chloro-3-hydroxybutanoate (6 above, >99% conversion based on GC chromatogram and HPLC). The GC-MS data were collected as example 1a. Chiral HPLC was performed on a Chiralcel OB packed column (0.46 cm I.D.×25 cm L; Daicel Chemical Industries, Japan) at 217 nm, with an eluent of n-hexane/2-propanol (9.3:0.7, v/v) at a flow rate of 1 mL/min. IR, vmax (thin film), 3600-3100 (br, O—H), 1731 (s, C═O) cm^−1. ^1H-NMR (400 MHz, Chloroform-d): δ ppm 1.29 (t, J=7.07 Hz, 3H), 2.55-2.70 (m, 2H), 3.62 (dd, J=5.31, 2.78 Hz, 2H) 4.19 (q, J=7.07 Hz, 2H), 4.23-4.30 (m, 1H). ^13C-NMR (400 MHz, Chloroform-d): δ ppm 14.11, 38.41, 48.11, 61.01, 67.92, 171.78. GC-MS (CI^+): m/z Calcd for C6H12O3Cl [M+H]+=167, C6H15O3Cl [M+NH4]^+=184; Found: 167 (M+H)^+, 184 (M+NH4)^+. HPLC-UV/Vis: (tR=7.9 minutes, tS=9.4 minutes), >99% e.e. of S.
D-(S)-4-chloro-3-hydroxybutanoate ethyl ester is a key chiral pharmaceutical intermediate used in the enantioselective synthesis of, for example, slagenin B and C and HMG-CoA reductase inhibitors. […]

[4] = Cyclohexanone monooxygenase (CHMO)/BspFDH2 coupled Baeyer-Villiger oxidation of cyclohexanone; settings: coupled with CHMO
Description: By coupling the enzymatic action of BspFDH2 with that of cyclohexanone monooxygenase (CHMO), oxygen C—C bond insertion, a Baeyer-Viliger (B-V) oxidation (see FIG. 4b), converted (>99% conversion, complete within 4 hours) cyclohexanone (3) to caprolactone (4) with NADPH regeneration.
NADP+ (20 mM, 1 mL) and BspFDH2 (17 mg/mL, 500 μL) were then added and the reaction shaken for 30 minutes at room temperature. After 30 minutes, pre-dialysed CHMO (2 mg/mL, 300 μL) was then added and the reaction shaken at 37° C. The reaction was monitored by GC-MS (Rt˜3.1 minutes). After 4 hr, the reaction mixture was extracted by DCM (3×1 mL) and the combined organic phase was dried and the solvent removed to afford oxepan-2-one (4 above, >99% conversion based on GC chromatogram).

B1: Bsp383FDH: wild type FDH from Burkholderia sp 383, Seq ID No: 1, C-terminal His-tagged (protein, listed as Burkholderia sp.)
chain: MATVLCVLYPDPVDGYPPRYVRDAIPVITHYADGQTAPTPAGPPGFQPGELVGCVSGALGLRGYMEAHGHTLIVTSDKDSPDSEFERRLPEADVVISQPFWPAYLTAERIARAPKLKLALTAGIGSDHVDLDAAARARITVAEVTGSNSISVAEHVVMTTLALVRNYLPSHAIAQQGGWNIADCVSRSYDVEGMHFGTVGAGRIGLAVLRRLKPFGLQLHYTQRHRLDASIEQELGLTYHADAASLASAVDIVNLQIPLYPSTEHLFDAAMIARMKRGAYLINTARAKLVDRDAVVNALTSGHLAGYGGDVWFPQPAPADHPWRTMPFNGMTPHISGTSLSAQARYAAGTLEILQCWFDGKPIRNEYLIVDGGTLAGTGAQSYRLT
modifications: C-terminal His tag
Km ([1]; cofactor NADP^+, 0.18M formate): 700 ± 100 µM
kcat NADP^+ ([1]; cofactor NADP^+, 0.18M formate): 2.77 ± 0.12 s⁻¹
cofactor preference for NADP^+, times greater than those of known FDHs such as CmetFDH ([1]; relative to CmetFDH): 10^6 times
activity at extreme pH [2]: highly active
reaction complete within ([3]; coupled with KRED101): ≤ 30 min
conversion of ethyl 4-chloro-3-oxobutanoate to ethyl 4-chloro-3-hydroxybutanoate ([3]; coupled with KRED101, NADPH regeneration, GC and HPLC): > 99%
reaction complete within [4]: ≤ 4 h
conversion of cyclohexanone to caprolactone (oxepan-2-one) ([4]; NADPH regeneration, GC): > 99%
